Here are results for 2 substances from patent US20150258217A1, “Methods of Synthesizing and Using Peg-Like Fluorochromes” (THE GENERAL HOSPITAL CORPORATION, priority 2012, published 2015).

The nature of data set [1]: Whole animal surface fluorescence after IV injection (elimination). It is filed as in vivo, mouse. The following applies: bladder at 20 minutes, vs (DOTA)Lys-Cys(IR-783) peptide. The text has this: (§1) A Kodak FX multispectral imaging system was used (Carestream Molecular Imaging, Rochester, N.Y.). Excitation at multiple wavelengths (620, 650, 690, 710, 720, 730, 750 and 760 nm) with the emission at 830 nm was setup for IR-783 spectrum; Excitation at multiple wavelengths (420, 440, 460, 480, 510, 520, 530, and 540 nm) with the emission at 600 nm was setup for Cy3 spectrum; Excitation at multiple wavelengths (450, 470, 510, 520, 530, 540, 550, 570, and 590 nm) with the emission at 700 nm was setup for mCherry; with manufacturer's software to separate (unmix) the IR-783 spectrum, Cy3 spectrum, or mCherry spectrum from skin autofluorescence and chlorophyll fluorescence from food. X-ray images were taken after fluorescence images. Animals were anesthetized with 2% isoflurane with O2 flow (2 I/min) during imaging.

Data set [2] is described as follows: Blood half-life from serum fluorescence after tail injection. The data set is classed as in vivo. The following applies: mouse, IV; single decay constant fit. The method, then: Using these procedures and PEG's of different molecular weights, PEG-like NIR fluorochromes of different molecular weights, volumes and pharmacokinetics were synthesized, with results summarized in Table 3B. Blood half-lives were determined by tail injection into mice and measuring serum fluorescence as a function of time. Data (fluorescence versus time) were fit to a single decay constant equation to yield blood half-lives. Human pharmacokinetics will be far slower than that of mice.

Data set [3] can be described thus: PN and peptide size (volume, diameter) by FPLC gel filtration (Superdex 200, globular protein standards). It is filed as physicochemical. The following applies: for Volume FPLC (diameter) / Volume FPLC: Table 5; for Volume FPLC (diameter): converted from globular protein equivalent MW; for Volume FPLC: globular protein equivalent molecular weight. An outline of the steps:
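Superdex 200 size exclusion in 0.05 M sodium phosphate, 0.15 M NaCl, 0.1% Tween, pH 7.2 at 0.8 ml/min, calibrated with globular protein standards via Kav. Apparent globular-equivalent molecular weight converted to diameter using radius (nm)=0.066M^1/3.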
(In gel filtration, larger molecules generally elute earlier.)

The conditions of data set [4]: mouse, in vivo. Here is the method: At two hours post injection, agent is in the blood and interstitium. By 24 hours post injection, tumors are becoming apparent as agent is being cleared. At 48 hours, labeling is highly tumor selective. […] By surface fluorescence, as with SPECT, labeling is highly tumor selective at 48 hours. Biodistribution as organ radioactivity concentrations FIG. 26(c) and total organ radioactivity FIG. 26(d) were obtained by dissection and ^111In counting at 24 hours and 48 hours post injection. Even at 48 hours post injection some 7.5% of injected dose is in the blood, with less than 5% in liver, even though the diameter of PN(783)10.0 exceeds that of albumin (6.7 nm). Data are means and standard deviations. […] By 72 hours, some 17% of injected dose was retained, approximately half of which was still in the blood based on FIG. 26d.

For the next data set, the system named is HT-29 tumor. The data set is classed as in vivo, mouse.
Text: as §1
Female nude mice (25-30 g; 6-8 weeks old; nu/nu) were anesthetized with 2% isoflurane/O2. HT-29 or mCherry-HT-29 cells were detached, pelleted and 200 μl of cell suspension containing 10^6 cells in Matrigel (BD Bioscience) was injected subcutaneously into right and left shoulders. Tumors were allowed to grow 5-7 days before experiments.
The imaging was performed by Triumph II multimodality imaging system (Gamma Medica Ideas, LLC) comprising XSPECT with four CZT (Cadmium Zink Telluride) detectors and X-O CT with CMOS detector. SPECT data of the ^111In-labeled compound was acquired for 60 minutes using 5-pinhole collimators and processed with 3D-OSEM algorithm using 4 subsets and 5 iterations. 3-dimensional CT data was processed with modified Feldkamp software. […] Animals were under isoflurane anesthesia (1.5%) with O2 flow (1.5 l/min) and kept warm during the imaging with a heated animal bed.
150 μl of ^111In-labeled PN(783)10 (400 μCi, ˜2 nmole) were injected to tumor-bearing animals by tail vein (IV). 24 hours or 48 hours later, animals were sacrificed, and tumors, blood, liver, spleen, stomach, kidneys, small intestine, lung, heart, tail, fat, and muscle, were collected. Radioactivity was measured with Perkin Elmer, Wizard2 2480 gamma counter.

For “(DOTA)Lys(PEG5K)-Cys(IR-783) [PN(783)4.3]”, the “fluorochrome elimination after IV injection” value in data set [1] is “enhanced fluorochrome elimination”. Also, in data set [2], the Serum half-life is 13.1 min. For the same substance, in data set [3] (5 kDa PEG vs non-PEGylated peptide, (4.3/1.1)), the “PEG-based expansion of volume” value was determined as 59 fold. In data set [3] (FPLC gel filtration), the diameter is 4.3 nm. The “Molecular Volume FPLC” value in data set [3] (Table 3B, dipeptides) is reported as 35.2 kDa. Further, in data set [3], the “Volume FPLC (diameter)” value worked out at 4.3 nm and the “Volume FPLC” value stood at 35.2 kDa.
Consider “(DOTA)Lys(PEG30K)-Cys(IR-783) [PN(783)10.0]”, for which, in data set [4], the “injected dose retained (whole animal)” value is given as around 17%. Further, the “tumor retention (EPR) by SPECT and surface fluorescence” value with HT-29 tumor (HT29 tumor, 48 hours) is reported as “retained in the tumor”. Moreover, in the data set with HT-29 tumor (mouse, in vivo), the “injected dose in the blood” value is listed as around 7.5% and the “injected dose in the liver” value was “less than 5%”. Further, in data set [3], the “Volume FPLC (diameter)” value was 10.0 nm and the “Volume FPLC” value worked out at 435.4 kDa.
